Measurements published in patent US20240002497A1 (Merck Sharp & Dohme, published 2024).

Key:
huNav1.7α + β1 (HEKa/β1) = molecular target: T1, huNav1.7α + β1 (HEKa/β1) (human, UniProt Q15858 1-1988; Q07699 19-218); assay: binding FACS, HEKa/β1 cells
T1 construct: also called HEKa/β1 huNav1.7α
Summary of the method: (§1)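 Flow cytometry read-out of anti-Flag signal on propidium iodide-negative cells measured ISVD binding. Purified FLAG3-tagged ISVD, diluted in PBS with 10% FBS and NaN₃, was applied to the cells for 30 minutes at 4° C.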

huNav1.7α (HEKa) = molecular target: T2, huNav1.7α (HEKa) (human, UniProt Q15858 1-1988); assay: binding FACS, HEKa cells
T2 construct: also called HEKa huNav1.7α
Procedure: Binding of the ISVDs to cell-expressed Nav1.7α was detected via murine anti-Flag (Sigma, catalog #F1804). Briefly, cells were resuspended in FACS buffer (PBS, 10% FBS, NaN₃) and transferred to a 96-well V-bottom plate at 1×10^5 cells/well. Purified FLAG3-tagged ISVD was diluted in FACS buffer and added to the cells for 30 minutes at 4° C. […] Prior to the read-out, the samples were resuspended in 1 μg/mL propidium iodide (Sigma, catalog #P4170) to exclude dead cells. Between each step, the cells were centrifuged for 5 minutes at 200 grams and washed with 100 μL/well FACS buffer.

rhNav1.7α+β1-β2-β3 [1] = molecular target: T3, rhNav1.7α+β1-β2-β3 (rhesus monkey α subunit with human β …); assay: cell-based or functional assay
huNav1.7α+β1 [2] = molecular target: T4, huNav1.7α+β1 (human, UniProt Q15858 1-1988; Q07699 19-218); assay: cell-based or functional assay
rhNav1.7α = rhNav1.7α (rhesus monkey, UniProt Q15858 1-1988 (human entry)); assay: cell-based or functional assay
huNav1.7α [3] = molecular target: T5, huNav1.7α (human, UniProt Q15858 1-1988); assay: cell-based or functional assay
rhNav1.7α+β1-β2-β3 [4] = molecular target: T3, rhNav1.7α+β1-β2-β3; assay: binding FACS, CHO FlpIn cells
[5] = molecular target: T6, huNav1.7α + β1-β2-β3 (human Nav1.7α co-expressed with human Navβ1, Navβ2 and Navβ3 on cells) (human); assay: binding FACS, CHO FlpIn cells
T6 construct: also called huNav1.7-beta1-beta2-beta3; CHO FlpIn huNav1.7α + β1-β2-β3
Summary of the method: as §1

[6] = molecular target: T7, rhNav1.7α + β1-β2-β3 (rhesus Nav1.7α co-expressed with Navβ1, Navβ2 and Navβ3 on cells) (rhesus monkey (α subunit); β subunits …); assay: binding FACS, CHO FlpIn cells
T7 construct: also called rhNav1.7-beta1-beta2-beta3; CHO FlpIn rhNav1.7α + β1-β2-β3
Summary of the method: as §1

[7] = molecular target: T8, huNav1.7α on HEK cells (without β subunits) (human, UniProt Q15858 1-1988); assay: binding FACS, HEK cells (HEKa)
T8 construct: also called HEKa huNav1.7α

[8] = molecular target: huNav1.7α + β1 on HEK cells (human, UniProt Q15858 1-1988; Q07699 19-218); assay: binding FACS, HEK cells (HEKa/b1)
huNav1.7α [9] = molecular target: T5, huNav1.7α; assay: binding FACS, HEKa cells
huNav1.7α+β1 [10] = molecular target: T4, huNav1.7α+β1; assay: binding FACS, HEKa/β1 cells

single pulse IC50 (rhNav1.7α+β1-β2-β3 [1]) [nM] | single pulse IC50 (huNav1.7α+β1 [2]) [nM] | 2-pulse IC50 [M], P1 (rhNav1.7α) [M] | 2-pulse IC50 [M], P2 (rhNav1.7α) [M] | 2-pulse IC50 [M], P1 (huNav1.7α [3]) [M] | 2-pulse IC50 [M], P2 (huNav1.7α [3]) [M] | EC50 (rhNav1.7α+β1-β2-β3 [4]) [nM] | EC50 [5] [nM] | EC50 [6] [nM] | EC50 [7] [nM] | EC50 [8] [nM] | Binder | also measured
 |  |  |  |  |  |  |  |  |  |  | F010301666 (VHH) VHH: EVQLVESGGGLVQPGGSLRLSCAASVRPFSTSAMGWFRQAPEKEREAVAAILWNGIVTYYADSVKGRFTISRDNAKNEVYLQMNKLKPEDTAVYYCALDRDYQGRSFSAKEYEYWGQGTLVTVSS | EC50 (huNav1.7α + β1 (HEKa/β1)): 14 nM; EC50 (huNav1.7α (HEKa)): 10 nM
1200 | 96 | 3e-06 | 1e-06 | 2e-06 | 2e-06 | 170 |  |  |  |  | F010300477 (VHH, vs F0103275B05: A94W) VHH: EVQLVESGGGLVQPGGSLRLSCAASGSIFNINSMAWYRRAPGKQRELVASSTNGGSTNYADSVKGRFTISRDNAKRVYLQMNSLTPEDTAVYYCNWLLQPSIYDISRTYWGQGTLVTVSS | 
 |  |  |  |  |  |  | 61 | 24 | 24 | 38 | F010301652 (VHH, also called F0103275B05(L11V, S33R, S50Y, S56D, R76N, T83R, V89L, N93R)) VHH: EVQLVESGGGVVQPGGSLRLSCAASGSIFNINRMAWYRRAPGKQRELVAYSTNGGDTNYADSVKGRFTISRDNAKNVYLQMNSLRPEDTALYYCRALLQPSIYDISRTYWGQGTLVTVSS | 
210 | 200 | 7e-06 | 1e-06 | 2e-06 | 2e-06 | 50 |  |  |  |  | F010300684 (VHH, vs F0103275B05: S27P, I28V, I31W, N53P, N93R, T101I) VHH: EVQLVESGGGLVQPGGSLRLSCAASGPVFNWNSMAWYRRAPGKQRELVASSTPGGSTNYADSVKGRFTISRDNAKRVYLQMNSLTPEDTAVYYCRALLQPSIYDISRIYWGQGTLVTVSS | 
 |  |  |  |  |  |  | 32 | 18 | 18 | 25 | F010301654 (VHH, also called F0103275B05(L11V, S33R, R39Q, S50Y, S56D, T83R, V89L, N93R)) VHH: EVQLVESGGGVVQPGGSLRLSCAASGSIFNINRMAWYRQAPGKQRELVAYSTNGGDTNYADSVKGRFTISRDNAKRVYLQMNSLRPEDTALYYCRALLQPSIYDISRTYWGQGTLVTVSS | 
 |  |  |  |  |  |  | 36 | 16 | 15 | 29 | F010301653 (VHH, also called F0103275B05(L11V, S33R, S50Y, S56D, T83R, V89L, N93R)) VHH: EVQLVESGGGVVQPGGSLRLSCAASGSIFNINRMAWYRRAPGKQRELVAYSTNGGDTNYADSVKGRFTISRDNAKRVYLQMNSLRPEDTALYYCRALLQPSIYDISRTYWGQGTLVTVSS | 
 |  |  |  |  |  |  | 46 | 26 | 19 | 28 | F010301655 (VHH, also called F0103275B05(L11V, S33R, R39Q, S50Y, S56D, R76N, T83R, V89L, N93R)) VHH: EVQLVESGGGVVQPGGSLRLSCAASGSIFNINRMAWYRQAPGKQRELVAYSTNGGDTNYADSVKGRFTISRDNAKNVYLQMNSLRPEDTALYYCRALLQPSIYDISRTYWGQGTLVTVSS | 
120 | 27 |  |  |  |  | 26 |  |  |  |  | F010300880 (VHH, vs F0103275B05: S27P, I28V, S33R, N53P, S56D, N93R, A94W) VHH: EVQLVESGGGLVQPGGSLRLSCAASGPVFNINRMAWYRRAPGKQRELVASSTPGGDTNYADSVKGRFTISRDNAKRVYLQMNSLTPEDTAVYYCRWLLQPSIYDISRTYWGQGTLVTVSS | EC50 (huNav1.7α [9]): 15 nM; EC50 (huNav1.7α+β1 [10]): 44 nM
170 | 73 | 2e-06 | 8e-07 | 1e-06 | 8e-07 | 45 |  |  |  |  | F010300631 (VHH, vs F0103275B05: S27P, I28V, S50Y, N53P, N93R) VHH: EVQLVESGGGLVQPGGSLRLSCAASGPVFNINSMAWYRRAPGKQRELVAYSTPGGSTNYADSVKGRFTISRDNAKRVYLQMNSLTPEDTAVYYCRALLQPSIYDISRTYWGQGTLVTVSS | 
